Reference: patent publication US20090285824A1

Key:
[1] = molecular target: hu IGF-1R(ECD)-C3-muIgG1Fc (human; mouse); assay: ORIGEN competition: antibody vs 1 nM Ru-IGF-1 on IGF-1R(ECD)-C3-muFc beads
[2] = molecular target: hu IGF-1R(ECD)-C3-muIgG1Fc (human; mouse); assay: ORIGEN competition: antibody vs 2 nM Ru-IGF-2 on IGF-1R(ECD)-C3-muFc beads

Ki [1] [nM] | Max (%), maximum level of inhibition at 1 µM antibody [1] [%] | Ki [2] [nM] | Max (%), maximum level of inhibition at 1 µM antibody [2] [%] | Substance
5.3 | 91 | – | – | murine anti-IGF-1R antibody αIR3 (Calbiochem)
16 | 89 | 13.1 | 99 | murine anti-IGF-1R antibody 1H7 (Santa Cruz Biotechnology)
